Values of other authors in publication PMC8393563.

Target: PGRMC1 (Homo sapiens) (UniProt O00264)

- Kd: < 3.5 µM
Substance: PGRMC1 (from UniProt O00264)
